Measured values from patent US20150098945A1 (Daiichi Sankyo, published 2015).

Key:
Assay in all cases: flow cytometry on transfected HEK293 cells
[1] = target: T1, human ROBO3 (pCI-hROBO3-transfected HEK293 cells) (human, UniProt Q96MS0 21-1386)
T1 sequence: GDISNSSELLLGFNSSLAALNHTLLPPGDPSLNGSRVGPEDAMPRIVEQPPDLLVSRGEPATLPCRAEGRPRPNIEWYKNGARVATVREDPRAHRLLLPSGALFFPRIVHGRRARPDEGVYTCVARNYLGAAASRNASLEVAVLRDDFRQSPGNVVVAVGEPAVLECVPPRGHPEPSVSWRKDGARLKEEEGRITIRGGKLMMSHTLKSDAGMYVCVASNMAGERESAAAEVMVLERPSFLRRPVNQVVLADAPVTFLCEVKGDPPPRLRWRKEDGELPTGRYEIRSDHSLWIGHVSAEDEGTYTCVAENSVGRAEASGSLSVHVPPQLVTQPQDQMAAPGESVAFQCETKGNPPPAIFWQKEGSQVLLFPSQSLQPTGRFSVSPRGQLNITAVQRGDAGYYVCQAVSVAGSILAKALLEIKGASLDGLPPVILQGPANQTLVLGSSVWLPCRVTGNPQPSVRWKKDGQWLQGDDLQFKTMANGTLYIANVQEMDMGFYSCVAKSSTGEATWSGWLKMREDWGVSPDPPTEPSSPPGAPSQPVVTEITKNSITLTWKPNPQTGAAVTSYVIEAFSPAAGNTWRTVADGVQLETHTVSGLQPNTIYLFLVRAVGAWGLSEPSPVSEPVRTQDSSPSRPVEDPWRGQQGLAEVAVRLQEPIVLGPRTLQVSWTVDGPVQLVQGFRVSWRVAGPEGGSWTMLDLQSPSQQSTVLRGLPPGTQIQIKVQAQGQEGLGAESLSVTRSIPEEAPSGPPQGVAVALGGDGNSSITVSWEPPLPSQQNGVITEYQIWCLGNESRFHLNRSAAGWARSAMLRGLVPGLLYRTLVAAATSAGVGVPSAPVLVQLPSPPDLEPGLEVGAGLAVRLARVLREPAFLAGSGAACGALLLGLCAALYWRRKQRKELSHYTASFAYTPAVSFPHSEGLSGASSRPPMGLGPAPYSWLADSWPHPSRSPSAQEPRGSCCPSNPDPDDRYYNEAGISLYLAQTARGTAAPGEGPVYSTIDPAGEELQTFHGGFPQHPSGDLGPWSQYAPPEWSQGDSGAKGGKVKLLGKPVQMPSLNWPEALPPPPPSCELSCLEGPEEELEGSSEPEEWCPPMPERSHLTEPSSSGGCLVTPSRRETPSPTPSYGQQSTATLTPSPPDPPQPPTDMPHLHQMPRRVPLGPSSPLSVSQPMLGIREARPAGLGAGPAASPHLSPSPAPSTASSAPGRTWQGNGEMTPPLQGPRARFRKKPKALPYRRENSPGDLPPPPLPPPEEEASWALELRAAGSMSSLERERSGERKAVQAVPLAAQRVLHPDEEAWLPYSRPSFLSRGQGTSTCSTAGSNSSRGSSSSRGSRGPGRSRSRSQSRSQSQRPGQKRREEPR

[2] = target: N-terminal FLAG-tagged human ROBO1 (pCI-FLAG-hROBO1-transfected HEK293 cells) (human, UniProt Q9Y6N7 58-1651)
[3] = target: T2, human ROBO2 (pCI-hROBO2-transfected HEK293 cells) (human)
T2 chain: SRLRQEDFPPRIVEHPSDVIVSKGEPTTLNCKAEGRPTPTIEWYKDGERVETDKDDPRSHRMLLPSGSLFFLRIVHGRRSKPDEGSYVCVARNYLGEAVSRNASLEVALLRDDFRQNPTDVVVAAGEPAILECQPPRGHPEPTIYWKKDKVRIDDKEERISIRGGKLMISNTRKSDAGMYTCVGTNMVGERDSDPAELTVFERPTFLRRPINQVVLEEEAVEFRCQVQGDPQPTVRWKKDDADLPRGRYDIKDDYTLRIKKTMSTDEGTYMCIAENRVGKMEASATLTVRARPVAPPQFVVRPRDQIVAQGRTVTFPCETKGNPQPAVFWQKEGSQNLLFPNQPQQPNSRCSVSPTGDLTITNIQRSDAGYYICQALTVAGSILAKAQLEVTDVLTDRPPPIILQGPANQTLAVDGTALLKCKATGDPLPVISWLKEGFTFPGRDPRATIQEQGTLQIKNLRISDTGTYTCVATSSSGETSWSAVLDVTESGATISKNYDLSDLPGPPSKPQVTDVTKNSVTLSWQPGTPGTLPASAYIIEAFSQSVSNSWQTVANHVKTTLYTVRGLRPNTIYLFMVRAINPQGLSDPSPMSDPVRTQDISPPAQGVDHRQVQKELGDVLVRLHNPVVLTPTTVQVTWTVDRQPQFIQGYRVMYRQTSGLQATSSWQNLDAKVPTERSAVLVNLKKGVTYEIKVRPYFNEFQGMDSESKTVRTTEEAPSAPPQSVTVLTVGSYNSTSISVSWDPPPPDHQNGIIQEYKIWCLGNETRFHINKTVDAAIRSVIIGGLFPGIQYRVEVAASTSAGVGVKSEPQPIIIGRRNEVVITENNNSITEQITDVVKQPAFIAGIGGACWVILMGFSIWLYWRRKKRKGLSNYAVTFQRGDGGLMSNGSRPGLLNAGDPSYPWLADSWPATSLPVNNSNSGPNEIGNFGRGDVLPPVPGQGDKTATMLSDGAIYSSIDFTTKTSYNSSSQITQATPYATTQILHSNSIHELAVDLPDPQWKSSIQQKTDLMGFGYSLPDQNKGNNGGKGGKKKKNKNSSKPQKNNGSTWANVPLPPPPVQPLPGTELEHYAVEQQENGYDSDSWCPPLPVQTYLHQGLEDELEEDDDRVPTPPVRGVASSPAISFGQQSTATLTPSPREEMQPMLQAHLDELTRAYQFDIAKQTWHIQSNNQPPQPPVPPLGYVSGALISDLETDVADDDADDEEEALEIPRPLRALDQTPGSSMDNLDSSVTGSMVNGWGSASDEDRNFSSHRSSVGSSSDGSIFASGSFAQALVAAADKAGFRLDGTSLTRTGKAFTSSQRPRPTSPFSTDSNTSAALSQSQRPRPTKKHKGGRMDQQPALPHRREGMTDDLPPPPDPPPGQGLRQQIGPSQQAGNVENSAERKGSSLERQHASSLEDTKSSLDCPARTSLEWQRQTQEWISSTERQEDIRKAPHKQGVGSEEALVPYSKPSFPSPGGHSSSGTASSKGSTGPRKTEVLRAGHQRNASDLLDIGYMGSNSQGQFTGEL

N-terminal FLAG-tagged human ROBO1 (pCI-FLAG-hROBO1-transfected HEK293 cells), sequence (Q9Y6N7 other isoform, or with tags, fused parts or gaps): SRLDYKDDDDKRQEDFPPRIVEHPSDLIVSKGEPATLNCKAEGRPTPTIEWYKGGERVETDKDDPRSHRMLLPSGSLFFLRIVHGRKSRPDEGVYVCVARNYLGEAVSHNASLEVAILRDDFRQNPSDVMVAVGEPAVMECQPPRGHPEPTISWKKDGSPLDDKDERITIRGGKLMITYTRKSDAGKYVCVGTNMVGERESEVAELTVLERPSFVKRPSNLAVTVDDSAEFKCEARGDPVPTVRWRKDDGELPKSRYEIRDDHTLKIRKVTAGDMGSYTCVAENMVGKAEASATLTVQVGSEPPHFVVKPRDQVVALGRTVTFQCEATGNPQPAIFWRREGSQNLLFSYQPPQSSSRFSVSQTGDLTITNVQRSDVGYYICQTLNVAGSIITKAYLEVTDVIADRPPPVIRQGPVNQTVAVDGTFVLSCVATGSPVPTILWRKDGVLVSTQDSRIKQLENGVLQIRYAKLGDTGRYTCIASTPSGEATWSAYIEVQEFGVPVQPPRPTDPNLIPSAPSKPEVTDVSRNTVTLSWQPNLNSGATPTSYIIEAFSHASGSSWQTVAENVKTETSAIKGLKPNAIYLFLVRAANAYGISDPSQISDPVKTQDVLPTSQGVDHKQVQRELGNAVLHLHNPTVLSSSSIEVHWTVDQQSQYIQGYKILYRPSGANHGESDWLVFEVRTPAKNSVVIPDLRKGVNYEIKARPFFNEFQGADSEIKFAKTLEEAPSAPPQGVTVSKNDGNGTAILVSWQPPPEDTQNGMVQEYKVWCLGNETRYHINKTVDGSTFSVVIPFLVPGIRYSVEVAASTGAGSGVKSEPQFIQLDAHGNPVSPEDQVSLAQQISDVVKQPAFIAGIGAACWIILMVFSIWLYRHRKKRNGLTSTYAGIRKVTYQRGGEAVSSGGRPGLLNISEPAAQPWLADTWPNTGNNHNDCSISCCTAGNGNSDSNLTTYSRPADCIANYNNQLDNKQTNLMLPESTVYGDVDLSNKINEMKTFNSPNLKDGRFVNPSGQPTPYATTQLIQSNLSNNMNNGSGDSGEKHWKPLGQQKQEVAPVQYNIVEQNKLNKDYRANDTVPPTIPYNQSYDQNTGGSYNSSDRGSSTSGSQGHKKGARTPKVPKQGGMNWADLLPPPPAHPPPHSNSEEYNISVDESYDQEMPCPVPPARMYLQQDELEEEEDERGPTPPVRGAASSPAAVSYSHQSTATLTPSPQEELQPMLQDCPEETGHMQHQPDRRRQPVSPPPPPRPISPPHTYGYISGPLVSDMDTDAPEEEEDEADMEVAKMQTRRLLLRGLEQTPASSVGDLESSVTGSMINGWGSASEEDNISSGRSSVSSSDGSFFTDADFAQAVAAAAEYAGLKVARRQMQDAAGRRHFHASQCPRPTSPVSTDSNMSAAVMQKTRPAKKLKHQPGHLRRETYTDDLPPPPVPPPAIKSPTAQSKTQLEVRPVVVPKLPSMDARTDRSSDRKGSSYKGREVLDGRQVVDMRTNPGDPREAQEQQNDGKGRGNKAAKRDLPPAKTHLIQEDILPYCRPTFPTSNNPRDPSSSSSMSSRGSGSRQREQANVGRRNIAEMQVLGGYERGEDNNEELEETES

B1: humanized MAb1 antibody H-1140 (antibody, human IgG2, kappa, V domains shown)
VH: EVQLVESGGGLVQPGGSLRLSCAASGFTFSTYAMSWVRQAPGKGLEWVATISQGGTYTYYPDSVKGRFTISRDNAKNTLYLQMNSLRAEDTAVYYCARLIYYDYLDYWGQGTLVTVSS
VL: DIVMTQSPLSLPVTLGEPASISCRSSQSLENSNGNTYLNWYLQKPGQSPQLLIYRVSNRFSGVPDRFSGSGSGTDFTLKISRVEAEDVGVYYCLQVTHVPWTFGPGTKVDIKR
notes: Human IgG2 / kappa constant regions; also called hMAb1-H2-type heavy chain + hMAb1-L1-type light chain
binding result [1]: no binding (tested: 10 µg/mL (method of 4)-4-2)) | binding result [2]: no binding (tested: 10 µg/mL (method of 4)-4-2)) | binding result [3]: no binding (tested: 10 µg/mL (method of 4)-4-2))
